Sequences and labels used below:
B1: Guanyl-specific ribonuclease Sa, P05798 (parent)
chain: DVSGTVCLSALPPEATDTLNLIASDGPFPYSQDGVVFQNRESVLPTQSYGYYHEYTVITPGARTRGTRRIITGEATQEDYYTGDHYATFSLIDQTC

This data set covers variants of B1. As to conditions: Kitasatospora aureofaciens, Thermal, DSC, reversible: yes (90-95%), structure 1RGG, whole UniProt chain shown.
The mark [1] stands for this setting: pH 5.5, 55.6 °C, sodium acetate potassium chloride 0.01 M 0.05 M.
Setting [2] is: pH 5.5, sodium acetate potassium chloride 0.01 M 0.05 M.

Usually Tm stands for the temperature at the midpoint of the melting transition. For DVSGTVCLSALPPEATDTLNLIASDGPFPYSQDGVVFQNRESVLPTQSYGYYHQYTVITPGARTRGTRRIITGEATQEDYYTGDHYATFSLIDQTC [E54Q], the “ddG of mutation (higher = less stable)” value under setting [1] came to 2.3 kcal/mol. Further, where the note is “pH 7, 49 °C, PIPES 0.03 M”, the “ddG of mutation (higher = less stable)” value came to 1.7 kcal/mol. Further, for the setting “pH 7, PIPES 0.03 M”, the Tm was 43.1 °C; the “change of melting temperature, mutant - wild type (higher = more stable)” value (from here on “change of melting temperature, mutant”) is -5.9 °C; the “unfolding enthalpy (calorimetric)” value came to 81 kcal/mol; the “unfolding enthalpy (van 't Hoff)” value worked out at 87 kcal/mol.

Take DVSGTVCLSALPPEATDTLNLIASDGPFPYSQDGVVFQNRKSVLPTQSYGYYHEYTVITPGARTRGTRRIITGEATQEDYYTGDHYATFSLIDQTC [E41K]: the “ddG of mutation (higher = less stable)” value under setting [1] was found to be 1.5 kcal/mol. Moreover, under setting [2], the Tm was 50.5 °C; the “change of melting temperature, mutant” value is -5.1 °C; the “unfolding enthalpy (calorimetric)” value came out at 97 kcal/mol; the “unfolding enthalpy (van 't Hoff)” value stood at 101 kcal/mol. In addition, the “ddG of mutation (higher = less stable)” value (pH 7, 49 °C, PIPES 0.03 M) was 0.7 kcal/mol. Under “pH 7, PIPES 0.03 M”, the Tm amounted to 46.5 °C; the “change of melting temperature, mutant” value is -2.5 °C; the “unfolding enthalpy (calorimetric)” value is 90 kcal/mol; the “unfolding enthalpy (van 't Hoff)” value worked out at 100 kcal/mol.

As to DVSGTVCLSALPPEATDTLNLIASDGPFPYSQDGVVFANRESVLPTQSYGYYHEYTVITPGARTRGTRRIITGEATQEDYYTGDHYATFSLIDQTC [Q38A], the “ddG of mutation (higher = less stable)” value under setting [1] is -0.4 kcal/mol. Besides, the “ddG of mutation (higher = less stable)” value (pH 7, 49 °C, PIPES 0.03 M) was -1 kcal/mol. For the setting “pH 7, PIPES 0.03 M”, the Tm worked out at 52.5 °C; the “change of melting temperature, mutant” value was 3.5 °C; the “unfolding enthalpy (calorimetric)” value worked out at 109 kcal/mol; the “unfolding enthalpy (van 't Hoff)” value was 110 kcal/mol.

DVSGTVCLSALPPEATDTLNLIASDGPFPYSQDGVVFQNRESVLPTQSYGYYHEYTVITPGARTRGTRRIITGKATQEDYYTGDHYATFSLIDQTC [E74K]: the “ddG of mutation (higher = less stable)” value under setting [1] is -0.1 kcal/mol. Further, under setting [2], the Tm was 56 °C; the “change of melting temperature, mutant” value worked out at 0.4 °C; the “unfolding enthalpy (calorimetric)” value amounted to 103 kcal/mol; the “unfolding enthalpy (van 't Hoff)” value amounted to 99 kcal/mol. Moreover, where the note is “pH 7, 49 °C, PIPES 0.03 M”, the “ddG of mutation (higher = less stable)” value was -0.9 kcal/mol. Where the note is “pH 7, PIPES 0.3 M”, the Tm was determined as 52.1 °C; the “change of melting temperature, mutant” value was determined as 3.1 °C; the “unfolding enthalpy (calorimetric)” value came out at 101 kcal/mol; the “unfolding enthalpy (van 't Hoff)” value came out at 113 kcal/mol.

DVSGTVCLSALPPEATDTLNLIASDGPFPYSQDGVVFQNRESVLPTQSYGYYHEYTVITPGARTAGTRRIITGEATQEDYYTGDHYATFSLIDQTC [R65A]: the “ddG of mutation (higher = less stable)” value under setting [1] turned out to be 1.3 kcal/mol. Also, under setting [2], the Tm amounted to 51.1 °C; the “change of melting temperature, mutant” value is -4.5 °C; the “unfolding enthalpy (calorimetric)” value is 81 kcal/mol; the “unfolding enthalpy (van 't Hoff)” value worked out at 78 kcal/mol. For the setting “pH 7, 49 °C, PIPES 0.03 M”, the “ddG of mutation (higher = less stable)” value amounted to 1 kcal/mol. Further, for the setting “pH 7, PIPES 0.03 M”, the Tm was 45.6 °C; the “change of melting temperature, mutant” value is -3.4 °C; the “unfolding enthalpy (calorimetric)” value was found to be 81 kcal/mol; the “unfolding enthalpy (van 't Hoff)” value is 90 kcal/mol.

Regarding DVSGTVCLSALPPEATDTLNLIASDGPFPYSQDGVVFQNRESVLPTQSYGYYHEYTVITPGARTRGTRRIITGEATQEDYYTGDQYATFSLIDQTC [H85Q], the “ddG of mutation (higher = less stable)” value under setting [1] was 0 kcal/mol. Moreover, under setting [2], the Tm stood at 55.5 °C; the “change of melting temperature, mutant” value was -0.1 °C; the “unfolding enthalpy (calorimetric)” value was found to be 94 kcal/mol; the “unfolding enthalpy (van 't Hoff)” value was 105 kcal/mol. Further, the “ddG of mutation (higher = less stable)” value (pH 7, 49 °C, PIPES 0.03 M) worked out at 0 kcal/mol. Besides, for the setting “pH 7, PIPES 0.03 M”, the Tm turned out to be 49.1 °C; the “change of melting temperature, mutant” value stood at 0.1 °C; the “unfolding enthalpy (calorimetric)” value came out at 90 kcal/mol; the “unfolding enthalpy (van 't Hoff)” value amounted to 89 kcal/mol.

The values are drawn from FireProtDB (doi:10.1110/ps.03176803).
